Experimental data as given in patent US20180312587A1 (ADURO BIOTECH HOLDINGS EUROPE B V, published 2018).

Legend:
hSIRP-VβC1γC2β = molecular target: T1, hSIRP-VβC1γC2β (human, UniProt O00241 30-398); assay: CELISA, CHO-K1 transfectants, domain exchange study; nd = not detected
T1 chain: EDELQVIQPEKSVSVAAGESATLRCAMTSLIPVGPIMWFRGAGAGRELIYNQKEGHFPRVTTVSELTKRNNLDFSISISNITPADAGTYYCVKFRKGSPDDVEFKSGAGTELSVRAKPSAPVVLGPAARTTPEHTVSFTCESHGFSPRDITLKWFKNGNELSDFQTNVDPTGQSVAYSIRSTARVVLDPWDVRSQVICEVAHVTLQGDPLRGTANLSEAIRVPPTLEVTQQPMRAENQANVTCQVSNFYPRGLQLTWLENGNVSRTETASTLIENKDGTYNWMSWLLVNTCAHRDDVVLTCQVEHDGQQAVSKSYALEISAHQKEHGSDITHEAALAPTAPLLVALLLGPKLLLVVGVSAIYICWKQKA
Description: Based on the fold of SIRPα/β1/γ, the extracellular region can be subdivided into three separate domains: the Ig-like (immunoglobulin-like) V-type (IgV), Ig-like C1-type (IgC1), and Ig-like C2-type (IgC2) domain. The IgV domain is also known as the ligand-binding N-terminal domain of SIRPα and SIRPγ (which binds to CD47). The human SIRPβ1/γ mutants were designed based on the full length hSIRPβ1 sequence (SEQ ID NO: 38) and each individual Ig-like domain was substituted for the equivalent domain of human SIRPγ (SEQ ID NO: 40). […] Binding of hSIRPα.40A to the exchange mutants was tested using CELISA. To this end, CHO-K1 cells were transiently transfected, using Lipofectamine 2000, with the pCI-neo vectors encoding hSIRPαV1, hSIRPαV2, hSIRPβ1, hSIRP-VγC1βC2β, hSIRP-VβC1γC2β, and hSIRP-VβC1βC2γ, respectively. The transfected cells were cultured at 37° C., 5% CO₂ and 95% humidity in medium (DMEM-F12 (Gibco) with 5% New Born Calf serum (Biowest) and Pen/Strep (Gibco)) until confluent. Subsequently, cells were trypsinized and seeded in 96-well flat-bottom tissue culture plates and cultured at 37° C., 5% CO₂ and 95% humidity in culture medium until confluent. […] Reactions were stopped with 0.5 M H₂SO₄ and absorbances were read at 450 and 610 nm.

hSIRPα-VαC1αC2β = molecular target: T2, hSIRPα-VαC1αC2β (human, UniProt P78324 31-504); assay: CELISA, CHO-K1 transfectants, domain exchange study
T2 construct: domain exchange mutant
T2 chain: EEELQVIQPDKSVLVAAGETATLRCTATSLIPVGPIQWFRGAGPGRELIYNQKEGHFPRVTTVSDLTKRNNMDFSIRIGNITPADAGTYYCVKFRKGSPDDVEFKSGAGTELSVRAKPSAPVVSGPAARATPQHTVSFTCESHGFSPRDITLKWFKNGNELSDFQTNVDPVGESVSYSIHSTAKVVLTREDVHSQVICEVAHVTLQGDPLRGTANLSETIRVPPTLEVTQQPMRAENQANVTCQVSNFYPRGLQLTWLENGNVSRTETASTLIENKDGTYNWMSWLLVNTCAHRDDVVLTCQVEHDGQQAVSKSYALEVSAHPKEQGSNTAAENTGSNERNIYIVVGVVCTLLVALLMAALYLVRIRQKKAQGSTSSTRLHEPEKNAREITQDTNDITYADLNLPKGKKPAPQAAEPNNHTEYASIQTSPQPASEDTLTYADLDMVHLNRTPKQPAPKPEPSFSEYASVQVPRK
Description: (§1) Based on the fold of SIRPα, the extracellular region can be subdivided into three separate domains: the Ig-like (immunoglobulin-like) V-type (IgV), Ig-like C1-type (IgC1), and Ig-like C2-type (IgC2) domain. The IgV domain is also known as the ligand-binding N-terminal domain of SIRPα (which binds to CD47). The human SIRPαV1/β1 mutants were designed on the basis of the full length hSIRPαV1 sequence (SEQ ID NO: 33) and each individual Ig-like domain was substituted for the equivalent domain of human SIRPβ1 (SEQ ID NO: 37). The cDNAs encoding the constructs, hSIRPα-VβC1αC2α (SEQ ID NO: 55), hSIRPα-VαC1βC2α (SEQ ID NO: 57), and hSIRPα-VaC1αC2β (SEQ ID NO: 59) were synthesized (GeneArt) and subcloned into the pCI-neo vector. Binding of hSIRPα.50A to the exchange mutants was tested using CELISA. To this end, CHO-K1 cells were transiently transfected, using Lipofectamine 2000, with the pCI-neo vectors encoding hSIRPαV1, hSIRPαV2, hSIRPβ1, hSIRPα-VβC1αC2α, hSIRPα-VαC1βC2α, and hSIRPα-VαC1αC2β, respectively. The transfected cells were cultured at 37° C., 5% CO₂ and 95% humidity in medium (DMEM-F12 (Gibco) with 5% New Born Calf serum (Biowest) and Pen/Strep (Gibco)) until confluent. Subsequently, cells were trypsinized and seeded in 96-well flat-bottom tissue culture plates and cultured at 37° C., 5% CO₂ and 95% humidity in culture medium until confluent. Then, culture medium was removed and cells were incubated for 1 hour at 37° C., 5% CO₂ and 95% humidity with hSIRPα.50A and anti-hSIRPα clone SE5A5 antibodies. Next, cells were washed with PBS-T and incubated for 1 hour at 37° C., 5% CO₂ and 95% humidity with goat-anti-mouse IgG-HRP conjugate (Southern Biotech). After that, cells were washed three times with PBS-T and anti-hSIRPα immunoreactivity was visualized with TMB Stabilized Chromogen (Invitrogen). Reactions were stopped with 0.5 M H₂SO₄ and absorbances were read at 450 and 610 nm.

human SIRPα variant 2 = molecular target: T3, human SIRPα variant 2 (human, UniProt P78324 31-504); assay: as above
T3 construct: full length ORF on transfected CHO-K1 cells; also called hSIRPαV2; SIRPαV2
Description: as §1

human SIRPα variant 1 = molecular target: T4, human SIRPα variant 1 (human, UniProt P78324 31-504); assay: as above
T4 construct: full length ORF on transfected CHO-K1 or HEK293 cells; entry includes the signal peptide; also called hSIRPαV1; SIRPαV1
Description: as §1

binding result (hSIRP-VβC1γC2β): no binding
EC50 (hSIRPα-VαC1αC2β): 408 pM
EC50 (human SIRPα variant 2): 215 pM
EC50 (human SIRPα variant 1): 321 pM
B1: hSIRPα.50A (antibody, V domains shown)
VH: QVQLQQSGPELVKPGASVRISCKASGFTFTNYYIHWVKQRPGQGLEWIGWIYPGNVNTKYNEKFKAKATLTADKSSTTAYMQLSSLASEDSAVYFCARPTIIATDFDVWGAGTTVTVSS
VL: DIVMTQSHKFMSTSVGDRVNITCKASQGVGTAVGWYQQKPGQSPRLLIYWASTRHTGVPDRFTGSGSGTDFSLAISNVQSEDLADYFCQQYSTYPFTFGGGTNLEIK
notes: light chain constant domain not tied; also called mouse hSIRPα.50A; hSIRPα.50A.mIgG1
